Measurements from US20070148663A1 (TRUSTEES OF COLUMBIA UNIVERSITY IN THE CITY OF NEW YORK, published 2007).
Positions count from the first letter of the chain named.

B1: GST-APC-C1 (amino acids 2674-2843) (other, UniProt P25054 2674-2843, looked up)
chain: SPTGNTPPVIDSVSEKANPNIKDSKDNQAKQNVGNGSVPMRTVGLENRLNSFIQVDAPDQKGTEIKPGQNNPVPVSETNESSIVERTPFSSSSSSKHSSPSGTVAARVTPFNYNPSPRKSSADSTSARPSQIPTPVNNNTKKRDSKTDSTESSGTQSPKRHSGSYLVTSV
notes: range 2674-2843; Gift from R. Baer; not shown: glutathione S-transferase (GST) tag
B2: GST-EB1-C (other, mouse, UniProt Q61166 165-268, looked up)
chain: ATQRTTAAPKAGPGMVRKNPGVGNGDDEAAELMQQVKVLKLTVEDLEKERDFYFGKLRNIELICQENEGENDPVLQRIVDILYATDEGFVIPDEGGPQEEQEEY
notes: range 165-268; also called glutathione S-transferase fused to EB1-C; not shown: glutathione S-transferase (GST) tag, N-terminal, vector pGEX-2T
B3: EB1-C-EEKR-GFP (other, mouse, UniProt Q61166 165-268, looked up)
chain: B2 chain with E47A, E49A, K56A, R58A
notes: range 165-268; not shown: GFP tag (vector pGFP-NKB)
B4: EB1-C-KR-GFP (other, mouse, UniProt Q61166 165-268, looked up)
chain: B2 chain with K56A, R58A
notes: as for B3
B5: mDia2 FH1 domain fragment, in vitro transcribed and translated, 35S-labelled (other, UniProt Q9Z207 540-610, looked up)
chain: PLQPSVEGEAGPSALPPAPPALSGGVPPPPPPPPPPPPPLPGMPMPFGGPVPPPPPLGFLGGQSSIPLNLP
modifications: 35S-methionine label
notes: domain: FH1
B6: GST-EB1 (other, mouse, UniProt Q61166 1-268, looked up)
chain: MAVNVYSTSVTSDNLSRHDMLAWINESLQLNLTKIEQLCSGAAYCQFMDMLFPGSIALKKVKFQAKLEHEYIQNFKILQAGFKRMGVDKIIPVDKLVKGKFQDNFEFVQWFKKFFDANYDGKEYDPVAARQGQETAVAPSLVAPALSKPKKPLGSSTAAPQRPIATQRTTAAPKAGPGMVRKNPGVGNGDDEAAELMQQVKVLKLTVEDLEKERDFYFGKLRNIELICQENEGENDPVLQRIVDILYATDEGFVIPDEGGPQEEQEEY
notes: not shown: glutathione S-transferase (GST) tag, N-terminal, vector pGEX-2T

Assays:
[1] = biological target: T1, His-521-1040-mDia2 (purified recombinant protein) (UniProt Q9Z207 521-1040); test: direct binding of purified recombinant proteins, GST pull-down, anti-His western blot
T1 construct: also called His-mDia; not shown: His tag of vector pQE-30 (detected with RGS-His antibody)
T1 sequence (Q9Z207 521-1040): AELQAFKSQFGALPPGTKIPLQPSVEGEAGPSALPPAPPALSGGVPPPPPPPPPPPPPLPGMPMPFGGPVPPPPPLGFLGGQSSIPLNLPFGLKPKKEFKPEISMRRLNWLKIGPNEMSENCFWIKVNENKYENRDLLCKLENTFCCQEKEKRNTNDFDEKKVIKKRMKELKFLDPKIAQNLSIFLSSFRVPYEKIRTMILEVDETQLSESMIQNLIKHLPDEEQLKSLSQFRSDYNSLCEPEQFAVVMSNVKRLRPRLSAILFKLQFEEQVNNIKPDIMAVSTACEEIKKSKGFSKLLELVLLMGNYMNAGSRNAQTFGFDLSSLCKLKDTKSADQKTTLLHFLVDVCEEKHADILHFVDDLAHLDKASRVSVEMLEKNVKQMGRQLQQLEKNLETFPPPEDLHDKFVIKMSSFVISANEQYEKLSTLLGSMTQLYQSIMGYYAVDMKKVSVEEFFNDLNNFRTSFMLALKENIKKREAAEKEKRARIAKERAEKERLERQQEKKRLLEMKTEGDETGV
Text: (§1) Bound proteins were detected by western blotting with antibodies to Flag-mDia1, tubulin and actin. […] Bound His-mDia was detected by western blotting with an anti-His antibody. (e) Endogenous mDia1 and EB1 co-immunoprecipitate with APC. Mouse brain extracts and COS-7 cell lysates were immunoprecipitated with APC antibodies and precipitates analyzed for APC, mDia1 and EB1 by western blotting with the indicated antibodies. IgG, non-immune immunoglobulin G used for control immunoprecipitation. (f) Schematic representation of the interactions between mDia, EB1 and APC. EB1 and APC bind to mDia through different domains than they use to bind to each other. Note that although EB1 and APC bind to the FH1-FH2 region of mDia, the individual binding sites within this domain have not been mapped. The molecules are not drawn to scale.
mDia2 transcripts labeled with ³⁵S-methionine (Amersham Biosciences) were generated with Quick-Coupled Transcription/Translation Systems (Promega). […] After washing, bound proteins were eluted with SDS sample buffer and analyzed by SDS-PAGE. […] The treated lysates were incubated with GST-tagged constructs as described above and analyzed by western blotting with mouse anti-Flag-M2 antibody (1:10,000; Sigma), rabbit anti-tubulin10 (W2; 1:50,000) and mouse anti-actin (C4D6; 1:50,000). […] Bound proteins were analyzed by western blotting with mouse RGS-His antibody (1:10,000).

[2] = biological target: B1; test: GST pull-down from COS-7 lysates, anti-GFP western blot
Text: Residues of EB1 that were mutated to the indicated residues (below) are shaded in grey. (b) Diagram of GST-APC constructs used in this study. APC has a microtubule-binding site (labeled ‘Basic’) and a separate EB1-binding site in its C-terminus. (c) Pull-down analysis of wild type (WT) EB1-C-GFP and mutant EB1-C-GFPs by GST-APC-C1 and GST-p150^Glued (1-330). Western blots were probed with anti-GFP antibody. (d) The ability of EB1-C-GFP wild type (WT) and mutants to inhibit LPA-stimulated Glu-MTs in serum-starved 3T3 cells. All EB1-C-GFP constructs were expressed at equivalent levels on the basis of GFP fluorescence. Error bars represent the standard error from at least three independent experiments. (e) EB1-GFP and EB1-C-GFP interact with endogenous APC in cells. COS-7 cells were transiently transfected and immunoprecipitated as indicated. Western blots of the immunoprecipitates were probed with EB1 antibody. […] Cells expressing APC (untagged) were detected with antibody to APC. […]
For binding of wild-type and mutant EB1-C-GFP to APC or p150^Glued, COS-7 cells were transfected with EB1-C-GFP constructs and lysed in PBS containing 1% Triton X-100 and protease inhibitors. […] Bound proteins were analyzed by western blotting with rabbit anti-GFP (1:10,000; BD Transduction Laboratory). […] Bound proteins were eluted with SDS sample buffer and analyzed by western blotting for EB1.

[3] = biological target: T2, GST-APC-C (amino acids 2167-2843) (UniProt P25054 2167-2843); test: GST pull-down of 35S-labelled in vitro translated protein, autoradiography
T2 construct: range 2167-2843; Gift from R. Baer; not shown: glutathione S-transferase (GST) tag
Text: as §1, with “EB1 and APC interact with mDia. (a) Binding of in vitro transcribed and translated ³⁵S-labelled ΔGBD-mDia2 to the indicated GST-tagged constructs of EB1 and APC (bottom). Arrows indicate full-length GST-APC-C or GST-APC-basic proteins. Additional bands detected in the GST-APC-C and GST-APC-basic lanes are presumed to be breakdown products. (b) Binding of in vitro transcribed and translated ³⁵S-labelled mDia2 fragments to GST-EB1, GST and GST-APC-C. (c) Binding of Flag-mDia1 expressed in COS-7 cells to GST-EB1 and GST-APC-C in the presence of DMSO, nocodazole (NZ) and latrunculin A (Lat A). Bound proteins” for “Bound proteins”
(§2) mDia2 transcripts labeled with ³⁵S-methionine (Amersham Biosciences) were generated with Quick-Coupled Transcription/Translation Systems (Promega). Equal molar amounts of GST, GST-EB1 or GST-APC on beads were incubated with labeled transcripts for 2 h at 4° C. in PBS containing 1% Triton X-100 and protease inhibitors. After washing, bound proteins were eluted with SDS sample buffer and analyzed by SDS-PAGE. Gels were incubated for 15-30 min in Amplify (Amersham Biosciences), dried and autoradiographed for 1-24 h. Flag-mDia1 (40) was transfected into COS-7 cells, lysates prepared and treated with 0.5 μM latrunculin A, 10 μM nocodazole or DMSO for 1 h on ice.

GST-EB1 = biological target: B6; test: as above
Text: as §1, with “EB1 and APC interact with mDia. (a) Binding of in vitro transcribed and translated ³⁵S-labelled ΔGBD-mDia2 to the indicated GST-tagged constructs of EB1 and APC (bottom). Arrows indicate full-length GST-APC-C or GST-APC-basic proteins. Additional bands detected in the GST-APC-C and GST-APC-basic lanes are presumed to be breakdown products. (b) Binding of in vitro transcribed and translated ³⁵S-labelled mDia2 fragments to GST-EB1, GST and GST-APC-C. (c) Binding of Flag-mDia1 expressed in COS-7 cells to GST-EB1 and GST-APC-C in the presence of DMSO, nocodazole (NZ) and latrunculin A (Lat A). Bound proteins” for “Bound proteins”
as §2

ΔGBDΔDADG(YEKR)-mDia2 = biological target: T3, ΔGBDΔDADG(YEKR)-mDia2 (UniProt Q9Z207 258-1030, limits assumed, 35S-methionine label (in the binding assay)); test: as above
T3 construct: a GFP-myc-tagged form was expressed in 3T3 cells for the Glu-MT assay; also called G(YEKR) mutation
T3 sequence (Q9Z207 other isoform, or with tags, fused parts or gaps mutant limits assumed): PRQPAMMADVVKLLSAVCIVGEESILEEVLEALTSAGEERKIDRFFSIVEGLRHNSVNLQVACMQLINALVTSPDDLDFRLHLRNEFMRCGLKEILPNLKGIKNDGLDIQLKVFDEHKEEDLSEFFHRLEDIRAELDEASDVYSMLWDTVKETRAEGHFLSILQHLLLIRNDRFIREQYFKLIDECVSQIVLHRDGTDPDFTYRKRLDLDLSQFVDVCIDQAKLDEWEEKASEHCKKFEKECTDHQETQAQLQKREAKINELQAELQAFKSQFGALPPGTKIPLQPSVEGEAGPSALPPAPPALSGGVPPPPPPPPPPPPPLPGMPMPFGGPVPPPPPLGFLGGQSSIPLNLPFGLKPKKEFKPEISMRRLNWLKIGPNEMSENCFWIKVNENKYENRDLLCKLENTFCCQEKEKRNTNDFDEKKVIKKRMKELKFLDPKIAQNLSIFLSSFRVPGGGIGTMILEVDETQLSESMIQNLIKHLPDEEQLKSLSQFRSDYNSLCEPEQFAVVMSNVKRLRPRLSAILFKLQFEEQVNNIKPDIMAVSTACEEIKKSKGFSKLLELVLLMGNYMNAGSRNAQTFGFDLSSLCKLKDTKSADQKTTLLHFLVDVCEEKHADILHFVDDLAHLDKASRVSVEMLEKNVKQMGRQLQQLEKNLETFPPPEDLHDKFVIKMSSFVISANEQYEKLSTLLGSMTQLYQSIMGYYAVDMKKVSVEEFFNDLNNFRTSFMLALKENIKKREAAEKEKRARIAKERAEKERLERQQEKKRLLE
Text: as §1, with “EB1 and APC interact with mDia. (a) Binding of in vitro transcribed and translated ³⁵S-labelled ΔGBD-mDia2 to the indicated GST-tagged constructs of EB1 and APC (bottom). Arrows indicate full-length GST-APC-C or GST-APC-basic proteins. Additional bands detected in the GST-APC-C and GST-APC-basic lanes are presumed to be breakdown products. (b) Binding of in vitro transcribed and translated ³⁵S-labelled mDia2 fragments to GST-EB1, GST and GST-APC-C. (c) Binding of Flag-mDia1 expressed in COS-7 cells to GST-EB1 and GST-APC-C in the presence of DMSO, nocodazole (NZ) and latrunculin A (Lat A). Bound proteins” for “Bound proteins”
as §2

[4] = biological target: T4, mDia2 FH2 domain fragment, in vitro transcribed and translated, 35S-labelled (UniProt Q9Z207 615-1013, limits assumed, 35S-methionine label); test: as above
T4 construct: domain: FH2
T4 sequence (Q9Z207 615-1013 limits assumed): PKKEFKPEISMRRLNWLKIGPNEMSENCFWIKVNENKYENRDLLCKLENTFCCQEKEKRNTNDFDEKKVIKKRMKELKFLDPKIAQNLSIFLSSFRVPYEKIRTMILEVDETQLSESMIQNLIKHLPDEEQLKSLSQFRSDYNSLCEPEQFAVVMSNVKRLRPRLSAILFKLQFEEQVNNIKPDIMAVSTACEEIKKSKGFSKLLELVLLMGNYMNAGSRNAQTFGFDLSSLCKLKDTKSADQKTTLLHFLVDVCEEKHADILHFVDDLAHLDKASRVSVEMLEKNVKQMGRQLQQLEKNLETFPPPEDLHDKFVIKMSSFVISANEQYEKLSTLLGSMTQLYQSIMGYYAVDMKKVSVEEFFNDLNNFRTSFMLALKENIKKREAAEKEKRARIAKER
Text: as §1, with “EB1 and APC interact with mDia. (a) Binding of in vitro transcribed and translated ³⁵S-labelled ΔGBD-mDia2 to the indicated GST-tagged constructs of EB1 and APC (bottom). Arrows indicate full-length GST-APC-C or GST-APC-basic proteins. Additional bands detected in the GST-APC-C and GST-APC-basic lanes are presumed to be breakdown products. (b) Binding of in vitro transcribed and translated ³⁵S-labelled mDia2 fragments to GST-EB1, GST and GST-APC-C. (c) Binding of Flag-mDia1 expressed in COS-7 cells to GST-EB1 and GST-APC-C in the presence of DMSO, nocodazole (NZ) and latrunculin A (Lat A). Bound proteins” for “Bound proteins”
as §2

Binder | binding result [1] | binding result [2] | also measured
B1 | no binding (tested: 0.3 µM) | – | –
B2 | no binding (tested: 0.3 µM) | – | –
B3 | – | no binding | –
B4 | – | no binding | –
B5 | – | – | binding result [3]: no binding; binding result (GST-EB1): no binding
B6 | – | – | binding result (ΔGBDΔDADG(YEKR)-mDia2): no binding; binding result [4]: no binding
